Laboratory results taken from paper PMC12552936, “Protein inhibitor of retinal membrane guanylyl cyclase suppresses cGMP synthesis in photoreceptors” (The Journal of Biological Chemistry, 2025).

Columns and labels:
[1] = molecular target: mOrange-tagged RetGC1 (retinal membrane guanylyl cyclase 1) (human) (UniProt Q02846)
[2] = molecular target: T1, mOrange-tagged RetGC1 (retinal membrane guanylyl cyclase 1) (human, UniProt Q02846 52-1103); assay: cell-based or functional assay
T1 sequence (looked up): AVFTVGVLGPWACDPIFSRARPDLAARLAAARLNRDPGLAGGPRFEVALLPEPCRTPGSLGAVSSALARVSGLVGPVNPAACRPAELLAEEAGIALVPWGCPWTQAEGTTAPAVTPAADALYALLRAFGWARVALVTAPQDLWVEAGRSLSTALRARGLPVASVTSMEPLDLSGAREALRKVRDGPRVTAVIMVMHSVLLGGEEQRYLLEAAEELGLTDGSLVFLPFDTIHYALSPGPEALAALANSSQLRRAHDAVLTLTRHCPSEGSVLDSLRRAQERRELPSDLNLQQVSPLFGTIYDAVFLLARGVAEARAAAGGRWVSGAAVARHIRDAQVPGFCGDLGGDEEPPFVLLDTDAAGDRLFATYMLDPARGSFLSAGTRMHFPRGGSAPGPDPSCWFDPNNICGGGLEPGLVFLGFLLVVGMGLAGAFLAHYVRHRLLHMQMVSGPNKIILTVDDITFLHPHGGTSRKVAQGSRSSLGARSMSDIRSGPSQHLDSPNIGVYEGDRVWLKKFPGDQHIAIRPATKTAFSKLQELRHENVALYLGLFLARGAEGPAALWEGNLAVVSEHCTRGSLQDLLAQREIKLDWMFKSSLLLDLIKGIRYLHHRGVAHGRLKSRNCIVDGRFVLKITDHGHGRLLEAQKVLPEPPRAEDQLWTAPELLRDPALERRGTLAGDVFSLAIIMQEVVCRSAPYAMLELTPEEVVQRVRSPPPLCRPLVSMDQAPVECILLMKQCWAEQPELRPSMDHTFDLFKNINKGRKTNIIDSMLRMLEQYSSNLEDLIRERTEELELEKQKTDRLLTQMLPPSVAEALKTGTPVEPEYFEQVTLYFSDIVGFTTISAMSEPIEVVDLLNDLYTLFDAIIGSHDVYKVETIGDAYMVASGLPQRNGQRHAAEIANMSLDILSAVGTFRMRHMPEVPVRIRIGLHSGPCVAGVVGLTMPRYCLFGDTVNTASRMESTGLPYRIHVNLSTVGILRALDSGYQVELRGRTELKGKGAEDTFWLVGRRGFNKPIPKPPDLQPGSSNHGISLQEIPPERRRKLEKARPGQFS

[3] = molecular target: native RetGC of the mouse retina (endogenous RetGC in retinal homogenates and isolated rod outer segments)

## M26R/L176F GCAP1 (from UniProt P46065 1-205) (natural protein)
[1]
  inhibition of the activity of recombinant RetGC1 in HEK293 membranes reconstituted with 1 μM GCAP1 (blocked pair: RetGC1:GCAP1), 2 mM EGTA, 10 mM MgCl2; IC50: 300 nM

B1: M26R GCAP1 (natural protein)
chain: MGNIMDGKSVEELSSTECHQWYKKFRTECPSGQLTLYEFRQFFGLKNLSPWASQYVEQMFETFDFNKDGYIDFMEYVAALSLVLKGKVEQKLRWYFKLYDVDGNGCIDRDELLTIIRAIRAINPCSDSTMTAEEFTDTVFSKIDVNGDGELSLEEFMEGVQKDQMLLDTLTRSLDLTRIVRRLQNGEQDEEGASGRETEAAEADG
modifications: N-terminal myristoyl
[1]
  inhibition of the activity of recombinant RetGC1 in HEK293 membranes reconstituted with 1 μM GCAP1 (blocked pair: RetGC1:GCAP1), 2 mM EGTA, 10 mM MgCl2; IC50: 640 nM

B2: GCAP1-GFP (wildtype GCAP1 tagged with GFP) (natural protein, bovine, UniProt P46065 1-205, looked up)
chain: MGNIMDGKSVEELSSTECHQWYKKFMTECPSGQLTLYEFRQFFGLKNLSPWASQYVEQMFETFDFNKDGYIDFMEYVAALSLVLKGKVEQKLRWYFKLYDVDGNGCIDRDELLTIIRAIRAINPCSDSTMTAEEFTDTVFSKIDVNGDGELSLEEFMEGVQKDQMLLDTLTRSLDLTRIVRRLQNGEQDEEGASGRETEAAEADG
[2]
  activation of recombinant human RetGC1 by Mg2+GCAP1 in the absence of Ca2+, dose dependence (Fig. 3A inset); EC50: ~1500 nM

B3: PIGCY-GFP (protein inhibitor of retinal guanylyl cyclase, M26R/G86R/L176F GCAP1, tagged with GFP at the C-terminus) (designed binder)
chain: MGNIMDGKSVEELSSTECHQWYKKFRTECPSGQLTLYEFRQFFGLKNLSPWASQYVEQMFETFDFNKDGYIDFMEYVAALSLVLKRKVEQKLRWYFKLYDVDGNGCIDRDELLTIIRAIRAINPCSDSTMTAEEFTDTVFSKIDVNGDGELSLEEFMEGVQKDQMLLDTLTRSLDFTRIVRRLQNGEQDEEGASGRETEAAEADG
[3]
  total RetGC activity in the rod outer segment fraction isolated from wildtype mouse retinas with 3 μM PIGCY (32 without PIGCY) (nmol cGMP/min/mg rhodopsin): 11
[2]
  inhibition by PIGCY of RetGC1 preactivated by 1 μM bovine recombinant GCAP1 (blocked pair: RetGC1:bovine GCAP1), 2 mM EGTA, 10 mM MgCl2; IC50: 51 nM
  inhibition by PIGCY of RetGC1 preactivated by 1 μM human recombinant GCAP1 (blocked pair: RetGC1:human GCAP1), 2 mM EGTA, 10 mM MgCl2; IC50: 75 nM
  inhibition by PIGCY of RetGC1 preactivated by 1 μM mouse recombinant GCAP1 (blocked pair: RetGC1:mouse GCAP1), 2 mM EGTA, 10 mM MgCl2; IC50: 91 nM
  inhibition of the activity of recombinant RetGC1 in HEK293 membranes reconstituted with 1 μM GCAP1 (blocked pair: RetGC1:GCAP1), 2 mM EGTA, 10 mM MgCl2; IC50: 52 nM
  reduction of Vmax of recombinant human RetGC1 in HEK293 membranes reconstituted with 2 μM wildtype GCAP1 by 0.35 μM PIGCY (blocked pair: RetGC1:GCAP1): > 3 fold
